Paper PMC7910581

target: T1, Nla28-DBD (Myxococcus xanthus (DK1622?)) (UniProt Q1DD46); assay: EMSA; settings: EMSA: 25 mM Tris acetate, 8.0 mM magnesium acetate, 10 mM KCl, 1 mM DTT, pH 8.0, 30 min at 30 C; 2 uM Nla28-DBD, 1 ng Cy5-DNA
T1 sequence: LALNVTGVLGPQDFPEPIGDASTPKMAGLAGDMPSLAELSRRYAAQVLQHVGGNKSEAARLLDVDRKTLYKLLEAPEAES

binding, binds:
CAGCAGGCGCTCGAGGTCCTCAAGGTCAAGAAGTTCGAAAGCGGCATGGTGGTGGACCCCGTCACCATCGAACCGGAGGCCCCGCTGGGCCGCGCGCTGGAGCTGATGCGCCTTCACGGCGTGTCCGGCATCCCGGTGGTGAAGGGCCAGCGACTGGTGGGCATCGTCACCAGCCGCGACGTGCGCTTCGAGACCAACTT (double strand) [Cy5-P3778]
GCGTCTTCTTGTCCGTACCGCGGAAGCGCAGCAGGTAGGGGTTGGCGTAGAAGATGTTGCCGGGCTCGCGCTTGCCCACCCAGAACGTCTCGGGGGCAATCTCCACCGGCACGAGGCGGAGGTCGGAGCTCTGGCTCGGGCTTGGGACTGGGGCGATGGTGCTGCTCATGGGCGCGGCGTTCCTTCCCTTTCGGGTGTAT (double strand) [Cy5-P1579]
GCTCGTGTCGCGTCCCTACATCCAGAACGCCGCTCGCAAGGCATTGGTCTCCGCCGTGAAGAGCATTGAGGATGCTCAGCAGGAGCTGGAGAGGACGCAGAAGCAGGAGGTGGAGTCGGCAGGCGCGGTCTCGCAGGCAGGGGGCGCGAAGTCCTCCGGCTAGTCAGGACTGTGCGAGGTCGTGTGGACGCTGTCCCTGT (double strand) [Cy5-P1286]
